Reference: US20060239990A1, “Protein Arginine N-Methyltransferase 2 (PRMT-2)” (priority 2003, published 2006)

What was measured:
E2F1 = experiment: E2F reporter assay (GAL4-E2F1 activator, luciferase); type: cell-based
Protocol: HeLa cells, U2OS cells, and Saos2 cells were seeded at a density of 5×10^4 per well in 24-well plates. Cells were transfected 24 hours later with the indicated plasmid and with 20 ng of pRL-TK (Promega) as an internal control to normalize transfection efficiency. The amount of CMV promoter in the transfection was kept constant using empty vector. Cells were harvested at 30 or 36 hour after transfection and luciferase activity was analyzed by Dual-Luciferase Reporter Assay System (Promega). Luciferase activity was measured as a ratio of Firefly to Renilla. To study endogenous E2F activity in MEFs, PRMT-2^+/+ or PRMT-2^−/− MEFs were seeded at a density of 3×10^5 per well in 6-well plates. Cells were transfected 24 hours later with 3 μg of E2F4B-Luc and 10 ng of pRL-TK plasmid. Cells were harvested at 36 hour after transfection and analyzed for luciferase activity as described above.

p50/p65 complex = experiment: NF-κB DNA binding assay (EMSA); type: biochemical, human; details: 293 cells cotransfected with p50 and p65 expression vectors
Protocol: DNA binding assay. Electrophoretic mobility shift assays (EMSAs) were conducted on 10 μg of nuclear extract protein from 293 cells transiently transfected with pRSV p50/p65 expression constructs and pVR1012 PRMT-2-A/PRMT-2-N expression constructs. A modified Dignam procedure (Dignam et al. Nucleic Acids Res. 11, 1475-1489 (1983)) was used to prepare nuclear extracts from 293 cells. Perkins, N. D. et al. Science 275, 523-527 (1997). NF-KB DNA binding was assayed using a double-stranded 32P-labeled κB probe (Geneka Biotechnology). DNA binding assays were performed as described previously. Perkins et al. Science 275, 523-527 (1997). Supershifting was done using NF-κB p65 (C-20) and NF-κB p50 (H-119) (Santa Cruz). GST-PRMT-2-A fusion proteins were expressed in BL21 (DE3) cells and extracts were prepared as described previously. Smith, D. B. & Johnson, K. S. Gene 67, 31-40 (1988).

HIV-1 LTR = experiment: HIV-1 reporter transcription, transient co-transfection; type: cell-based, human
Protocol: Cell culture, transfection, and reporter gene assays. The E1A-transformed, human kidney cell line, 293, and NIH-3T3 cells were maintained in Dulbecco's Modified Eagle Medium (DMEM) supplemented with 10% fetal calf serum and penicillin-streptomycin at 37° C. in 5% carbon dioxide in tissue culture grade Petri dishes. PRMT-2−/− mouse embryo fibroblasts (MEFs) and wild type MEFs were prepared from day 13.5 embryos and maintained in DMEM supplemented with 10% fetal calf serum. MEFs at passage 4 were used in this experiment. Lipofectamine Plus™ reagent (Boehringer Mannheim) was used to transfect both 293 and NIH-3T3 cells according to directions from the manufacturer. […] TNF-α stimulation of cells was done using recombinant TNF-α (200 U/ml) for 12 hours. Transfected cells were harvested at 36 hours, and CAT activity was assayed on 10 to 100 μg of protein from whole cell extracts. CAT assays were performed essentially as described in Leung, K. & Nabel, G. J. Nature 333, 776-778 (1988). To analyze the κB-reporter activity in MEFs, cells were transfected with the reporter (2×kB-Luc) and PRL-TK vector (Promega) using FuGENE6 transfection reagent (Roche). Luciferase activity was analyzed by Dual-Luciferase Reporter Assay System (Promega).
To determine whether PRMT-1, 2 or 3 could affect NF-κB function, their potential to regulate effects on transcription of the human immunodeficiency virus type 1 (HIV-1) was examined. Transient co-transfections were performed using PRMT1, PRMT2 and PRMT3 expression plasmids with an HIV-1 reporter plasmid in the human renal epithelial cell line, 293T.
To determine its dependence on NF-κB, human immunodeficiency virus type 1 (HIV-1) reporter plasmids with wild-type (WT) or mutant (ΔκB) sites were co-transfected transiently with control or PRMT2 expression plasmids in the different cell lines. […] The KB effect was dose-dependent and was also observed with other inducers of NF-κB, including phorbol […] (PMA) (FIG. 2B, right panel).

293 cells = experiment: TNF-α-induced apoptosis in transfected 293 cells; type: cell-based, human; details: TNF-α 1000 U/ml 24 hours
Protocol: Apoptosis analysis. Apoptosis in PRMT-2-expressing 293 cells was analyzed as follows. Cells were seeded at 2.5×10^5 per well in 6 well plates. The next day, empty vector, mutant IκBα (S32A/S36A), RelA or PRMT-2 was co-transfected with CD2 expression vector. Twenty-four hours after transfection cells were stimulated with TNF-α (1000 U/ml) for 24 hours. Both floating and attached cells in each well were harvested by EDTA treatment. Cells were stained with APC-labeled anti-CD2 antibody (BD Bioscience) in SM buffer (PBS containing 2% FCS). After washing twice with PBS, cells were stained with FITC-labeled Annexin V and propidium iodide using Annexin V FITC Apoptosis Detection Kit (Oncogene), and analyzed by flow cytometry (FACS Caliber, BD Bioscience).

B1: PRMT2: human PRMT-2 polypeptide, SEQ ID NO:2, expressed from pVR1012 vector with HA-tag (protein, listed as Homo sapiens)
chain: MATSGDCPRSESQGEEPAECSEAGLLQEGVQPEEFVAIADYAATDETQLSFLRGEKILILRQTTADWWWGERAGCCGYIPANHVGKHVDEYDPEDTWQDEEYFGSYGTLKLHLEMLADQPRTTKYHSVILQNKESLTDKVILDVGCGTGIISLFCAHYARPRAVYAVEASEMAQHTGQLVLQNGFADIITVYQQKVEDVVLPEKVDVLVSEWMGTCLLFEFMIESILYARDAWLKEDGVIWPTMAALHLVPCSADKDYRSKVLFWDNAYEFNLSALKSLAVKEFFSKPKYNHILKPEDCLSEPCTILQLDMRTVQISDLETLRGELRFDIRKAGTLHGFTAWFSVHFQSLQEGQPPQVLSTGPFHPTTHWKQTLFMMDDPVPVHTGDVVTGSVVLQRNPVWRRHMSVALSWAVTSRQDPTSQKVGEKVFPIWR
modifications: HA tag
E2F1-induced promoter activity (E2F1; HeLa cells, in the presence of the E2F1 activator): repressed E2F1-induced promoter activity in a dose-dependent manner
E2F1 activity (E2F1; Saos 2 cells (RB-deficient), without RB): did not repress E2F1 activity
E2F repression (E2F1; Saos 2 cells co-transfected with RB): E2F repression by PRMT2 in a dose-dependent manner was observed
NF-κB DNA binding in nuclear extracts of transfected cells (p50/p65 complex): inhibited DNA binding of the p50/p65 complex in a dose-dependent manner
inhibition of HIV-1 transcription (HIV-1 LTR; 293T cells, expression plasmid co-transfected with HIV-1 reporter plasmid): about 50 fold
HIV-1 transcription from wild-type reporter (HIV-1 LTR; 293 cells, basal and TNF-α-dependent): significantly inhibited both basal and TNF-α-dependent HIV-1 transcription
susceptibility to TNF-induced cell death (293 cells): increased their susceptibility to TNF-induced cell death
